Numbering of substitutions follows the chain as printed.
Columns and labels:
[1] = molecular target: T1, CD39 mutants transfected in Hek-293T cells (Homo sapiens, UniProt P49961, E143A/N99A/Q96A/R147E); assay: Epitope mapping: binding to CD39 mutants by flow cytometry; details: mutant 5: Q96A, N99A, E143A, R147E
T1 construct: expressed in transfected cells; host or cells: HEK293T
T1 sequence (P49961 1-510 Q96A/N99A/E143A/R147E): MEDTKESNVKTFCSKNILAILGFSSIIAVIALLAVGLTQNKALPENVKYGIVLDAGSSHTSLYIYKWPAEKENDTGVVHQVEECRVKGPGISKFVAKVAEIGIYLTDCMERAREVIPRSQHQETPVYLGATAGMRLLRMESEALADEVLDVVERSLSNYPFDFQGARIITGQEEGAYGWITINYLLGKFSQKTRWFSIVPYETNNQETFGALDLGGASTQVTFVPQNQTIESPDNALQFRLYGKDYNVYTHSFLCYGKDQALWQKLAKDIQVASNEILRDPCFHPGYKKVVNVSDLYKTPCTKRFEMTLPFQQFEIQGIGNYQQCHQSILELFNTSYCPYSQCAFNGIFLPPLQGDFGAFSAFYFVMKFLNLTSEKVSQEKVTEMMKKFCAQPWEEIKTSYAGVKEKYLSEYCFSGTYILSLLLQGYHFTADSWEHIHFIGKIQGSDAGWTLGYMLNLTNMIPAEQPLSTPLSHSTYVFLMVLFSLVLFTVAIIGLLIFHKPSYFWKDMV
Experimental: (§1) CD39 mutants were generated by PCR. The sequences amplified were run on agarose gel and purified using the Macherey Nagel PCR Clean-Up Gel Extraction kit (reference 740609). The purified PCR products generated for each mutant were then ligated into an expression vector, with the ClonTech InFusion system. The vectors containing the mutated sequences were prepared as Miniprep and sequenced. After sequencing, the vectors containing the mutated sequences were prepared as Midiprep using the Promega PureYield™ Plasmid Midiprep System. HEK293T cells were grown in DMEM medium (Invitrogen), transfected with vectors using Invitrogen's Lipofectamine 2000 and incubated at 37° C. in a CO2 incubator for 48 hours prior to testing for transgene expression. The targeted amino acid mutations in the table 1 below are shown using numbering of SEQ ID NO: 1.
(§2) In order to define the epitopes of anti-CD39 antibodies, we designed CD39 mutants defined by substitutions of amino acids exposed at the molecular surface over the surface of CD39.
(§3) Dose-ranges of I-394 (10-2.5-0.625-0.1563-0.0391-0.0098-0.0024-0.0006 μg/ml) are tested on the 20 generated mutants by flow cytometry. […] Mutant 5 contains amino acid substitutions at residues Q96, N99, E143 and R147. […]

[2] = molecular target: T2, CD39 mutants transfected in Hek-293T cells (Homo sapiens, UniProt P49961, E142K/M139A/R138A); assay: as above; details: mutant 19: R138A, M139A, E142K
T2 construct: expressed in transfected cells; host or cells: HEK293T
T2 sequence (P49961 1-510 R138A/M139A/E142K): T1 sequence (P49961 1-510 Q96A/N99A/E143A/R147E) with A96Q, A99N, R138A, M139A, E142K, A143E, E147R
Experimental: as §1, §2, §3

[3] = molecular target: T3, Human CD39-L4 (NTPDase5, ENTPD5) (Homo sapiens, UniProt O75356); assay: ELISA titration on CD39-L4; type: binding
T3 sequence (O75356 25-428): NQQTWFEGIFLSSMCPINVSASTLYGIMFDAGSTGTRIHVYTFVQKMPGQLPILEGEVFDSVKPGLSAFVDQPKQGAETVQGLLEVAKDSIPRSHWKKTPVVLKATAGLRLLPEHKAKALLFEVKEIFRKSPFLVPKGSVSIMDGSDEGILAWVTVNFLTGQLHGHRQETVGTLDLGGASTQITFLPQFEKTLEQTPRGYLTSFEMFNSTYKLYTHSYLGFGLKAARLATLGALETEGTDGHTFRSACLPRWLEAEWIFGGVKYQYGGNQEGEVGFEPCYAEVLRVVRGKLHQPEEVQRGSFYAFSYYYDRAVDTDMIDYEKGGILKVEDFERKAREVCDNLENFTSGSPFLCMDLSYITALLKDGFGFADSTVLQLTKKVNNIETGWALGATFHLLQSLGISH
Experimental: Antibody I-394 was tested for binding to recombinant human CD39 isoforms (Rec-huCD39 isoforms) having amino acid sequences shown below were coated in 96-well plate in PBS 1X at 500 ng/ml or 1 μg/ml at 4° C. overnight. Wells were washed in TBS Tween® 20 (polysorbate 20), and further saturated 2H at RT in TBS Blocking buffer. Dose range concentration of primary antibody was incubated in TBS blocking buffer for 2 h at RT. Wells were washed in TBS Tween® 20 (polysorbate 20). […] Optical density was measured on Enspire™ at OD=450.

binding to cells expressing mutant 19 of CD39 [2]: complete loss of binding
Substance: I-394: anti-CD39 antibody, VH SEQ ID NO: 6, VL SEQ ID NO: 7, human IgG1 Fc with L234A/L235E/G237A/A330S/P331S
binding to cells expressing mutant 5 of CD39 [1]: strongly reduced binding to mutant 5 (but with some residual binding to mutant 5)
binding to CD39-L4 in ELISA [3]: not to any of the isoforms CD39-L1, -L2, -L3 or -L4
